The values that follow come from patent US20220177594A1.

Residue numbers refer to the chain shown, from its start.

B1: Mu_02D09_VH (SEQ ID NO: 31)_G33A (antibody, V domains shown)
VH: EVQLVESGGGLVKPGGSLTLSCAASGFTFSDYAMHWLRQAPEKGLEWVAYISSGSRAVFFADTVKGRFTISRDNAKNTLFLQMTSLRSDDTAMYYCARDRYDGRGFAYWGQGTLVTVSA
VL: DIVLTQSPATLSVTPGDSVSLSCRASQSISNNLHWYQQTSHESPRLLITYASQSISGIPSRFSGSGSGTDFTLSINSVETEDFGMYFCQQSNSWPLTFGAGTKLELKR
B2: Mu_02D09_VH (SEQ ID NO: 31)_S52A (antibody, V domains shown)
VH: B1 VH with A33G, S52A
VL: B1 VL
B3: Mu_02D09_VH (SEQ ID NO: 31)_H35A (antibody, V domains shown)
VH: B1 VH with A33G, H35A
VL: B1 VL
B4: Mu_02D09_VH (SEQ ID NO: 31)_D102A (antibody, V domains shown)
VH: B1 VH with A33G, D102A
VL: B1 VL
B5: Mu_02D09_VH (SEQ ID NO: 31)_D62A (antibody, V domains shown)
VH: B1 VH with A33G, D62A
VL: B1 VL
B6: Mu_02D09_VL (SEQ ID NO: 33)_L96A (antibody, V domains shown)
VH: B1 VH with A33G
VL: B1 VL with L96A
B7: Mu_02D09_VL (SEQ ID NO: 33)_I29A (antibody, V domains shown)
VH: B1 VH with A33G
VL: B1 VL with I29A
B8: Mu_02D09_VH (SEQ ID NO: 31)_Y50A (antibody, V domains shown)
VH: B1 VH with A33G, Y50A
VL: B1 VL
B9: Mu_02D09_VL (SEQ ID NO: 33)_W94A (antibody, V domains shown)
VH: B1 VH with A33G
VL: B1 VL with W94A
B10: Mu_02D09_VH (SEQ ID NO: 31)_Y101A (antibody, V domains shown)
VH: B1 VH with A33G, Y101A
VL: B1 VL
B11: Mu_02D09_VH (SEQ ID NO: 31)_R104A (antibody, V domains shown)
VH: B1 VH with A33G, R104A
VL: B1 VL
B12: Mu_02D09_VH (SEQ ID NO: 31)_D99A (antibody, V domains shown)
VH: B1 VH with A33G, D99A
VL: B1 VL
B13: Mu_09E09_VH (SEQ ID NO: 35)_S35A (antibody, V domains shown)
VH: DVKLVESGEGLVKPGGSLKLSCAASGFTFSSYAMAWVRQTPEKRLEWVAYISSGGDYIYYADTVKGRFTISRDNARNTLYLQMSSLKSEDTAMYYCTRDPITGTFAYWGQGTLVTVSA
VL: DLQMTQTTSSLSASLGDRVTISCRASQDINNYLNWYQQKPDGTVKLLIYYTSTLHSGVPSRFSGSGSGTDYSLTISNLEQEDIATYFCQQGNTLPWTFGGGTKLEIKR
B14: FEL_09E09_1.1 (antibody)
heavy: DVQLVESGGDLVKPGGSLRLTCVASGFTYSSYAMSWVRQAPGKGLQWVAYISSGGDYIYYADTVKGRFTISRDNAKNTLYLQMNSLKTEDTATYYCVRDPITGTFAYWGQGTLVTVSSASTTAPSVFPLAPSCGTTSGATVALACLVLGYFPEPVTVSWNSGALTSGVHTFPAVLQASGLYSLSSMVTVPSSRWLSDTFTCNVAHPPSNTKVDKTVRKTDHPPGPKPCDCPKCPPPEAAGAPSIFIFPPKPKDTLSISRTPEVTCLVVDLGPDDSDVQITWFVDNTQVYTAKTSPREEQFNSTYRVVSVLPILHQDWLKGKEFKCKVNSKSLPSPIERTISKAKGQPHEPQVYVLPPAQEELSRNKVSVTCLIKSFHPPDIAVEWEITGQPEPENNYRTTPPQLDSDGTYFVYSKLSVDRSHWQRGNTYTCSVSHEALHSHHTQKSLTQSPGK
light: EIQMTQSPSSLSASPGDRVTITCRASQDINNYLNWYQQKPGKVPKLLIYYTSTLHSGVPSRFSGSGSGTDFTLTISSLEPEDAATYYCQQGNTLPWTFGQGTRSDAQPSVFLFQPSLDELHTGSASIVCILNDFYPKEVNVKWKVDGVVQNKGIQESTTEQNSKDSTYSLSSTLTMSSTEYQSHEKFSCEVTHKSLASTLVKSFQRSECQRE
B15: FEL_10F07_1.2 (antibody)
heavy: B14 heavy with I58F
light: DITMTQSPGSLAGSPGQQVTMNCRASQDITNYLNWYQQKPGQHPKLLIYYTSTLHSGVPDRFSGSGSGTDFTLTISNLQAEDVASYYCQQGHMLPWTFGQGTRSDAQPSVFLFQPSLDELHTGSASIVCILNDFYPKEVNVKWKVDGVVQNKGIQESTTEQNSKDSTYSLSSTLTMSSTEYQSHEKFSCEVTHKSLASTLVKSFQRSECQRE
B16: FEL_10F07_2.1 (antibody)
heavy: B14 heavy with Y29F, I58F, N74D, N84S, V97T, R98G
light: B14 light with N30T, N92H, T93M
B17: Mu_19F07_VH (SEQ ID NO: 47)_S56A (antibody, V domains shown)
VH: EVKLVESEGGLVQPGSSMKLSCTASGFTFSDYYMAWVRQVPEKGLEWVANINYDGASTYYLDSLKSRFIISRDNAKNILYLQMSSLKSEDTATYYCARGLTWDFDVWGTGTTVTVSS
VL: DIVMTQSHKFMSPSVGDRVSITCKASQDVDTAVAWYQQKPGQSPKLLIYLASTRHTGVPDRFTGSGSGTDFTLTISNVQSEDLADYFCQQYSRFPLTFGAGTKLELKR
B18: Mu_19F07_VH (SEQ ID NO: 47)_W102A (antibody, V domains shown)
VH: B17 VH with A56S, W102A
VL: B17 VL
B19: Mu_19F07_VH (SEQ ID NO: 47)_Y60A (antibody, V domains shown)
VH: B17 VH with A56S, Y60A
VL: B17 VL
B20: Mu_09E09_VL (SEQ ID NO: 37)_Q90A (antibody, V domains shown)
VH: B13 VH with A35S
VL: B13 VL with Q90A
B21: Mu_09E09_VL (SEQ ID NO: 37)_Y50A (antibody, V domains shown)
VH: B13 VH with A35S
VL: B13 VL with Y50A
B22: Mu_09E09_VH (SEQ ID NO: 35)_Y59A (antibody, V domains shown)
VH: B13 VH with A35S, Y59A
VL: B13 VL
B23: Mu_09E09_VL (SEQ ID NO: 37)_W96A (antibody, V domains shown)
VH: B13 VH with A35S
VL: B13 VL with W96A
B24: Mu_09E09_VL (SEQ ID NO: 37)_N92A (antibody, V domains shown)
VH: B13 VH with A35S
VL: B13 VL with N92A
B25: Mu_09E09_VH (SEQ ID NO: 35)_I101A (antibody, V domains shown)
VH: B13 VH with A35S, I101A
VL: B13 VL

For the first experiment, the target named is Feline_OSMR_hlgG1_Fc (feline). The experiment can be described thus: SPR Biacore. A general note: In SPR one partner is held on a chip, and binding of the other changes the refractive index at the surface.
Chain of Feline_OSMR_hlgG1_Fc (feline) (chain, as listed by the source limits assumed, form in doubt): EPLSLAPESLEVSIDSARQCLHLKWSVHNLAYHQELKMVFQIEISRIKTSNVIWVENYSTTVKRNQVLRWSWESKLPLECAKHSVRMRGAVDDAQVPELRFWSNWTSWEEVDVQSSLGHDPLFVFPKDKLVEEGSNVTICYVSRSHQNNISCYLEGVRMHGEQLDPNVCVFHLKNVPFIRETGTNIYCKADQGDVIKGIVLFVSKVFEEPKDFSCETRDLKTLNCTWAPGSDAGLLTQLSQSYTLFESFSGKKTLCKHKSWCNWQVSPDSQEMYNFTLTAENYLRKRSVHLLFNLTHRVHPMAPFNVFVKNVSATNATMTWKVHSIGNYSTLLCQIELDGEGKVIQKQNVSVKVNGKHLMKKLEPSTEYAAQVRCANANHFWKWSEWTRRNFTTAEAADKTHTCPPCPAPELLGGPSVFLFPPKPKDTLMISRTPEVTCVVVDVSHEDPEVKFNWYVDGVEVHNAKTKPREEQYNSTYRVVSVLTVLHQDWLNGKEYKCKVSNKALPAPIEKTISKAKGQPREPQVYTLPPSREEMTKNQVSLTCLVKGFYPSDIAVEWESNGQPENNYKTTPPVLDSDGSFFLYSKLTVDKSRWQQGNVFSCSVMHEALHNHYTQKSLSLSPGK
In general, Kd refers to the equilibrium constant for the complex coming apart. Broadly, the koff is a measure of how fast the partners let go of each other. A lower koff goes with a long-lived complex. As usually defined, the kon is the second-order rate constant of association. Read a low kon as slower complex formation. Turning to B1, the Kd is 6.13 nM, the koff stood at 0.0014 s⁻¹ and the kon was 229000 M⁻¹ s⁻¹.
On the same counts, the results for B2 are 0.736 nM, 0.000483 s⁻¹ and 656000 M⁻¹ s⁻¹.
On the same counts, the results for B3 are 8.05 nM, 0.00108 s⁻¹ and 134000 M⁻¹ s⁻¹.
On the same counts, the results for B4 are 13.9 nM, 0.00174 s⁻¹ and 125000 M⁻¹ s⁻¹.
Take B5: the Kd amounted to 0.00211 nM, the koff amounted to 2.31e-07 s⁻¹ and the kon came out at 109000 M⁻¹ s⁻¹.
For B6, the Kd came to 0.000648 nM, the koff came to 2.85e-07 s⁻¹ and the kon was 440000 M⁻¹ s⁻¹.
On the same counts, the results for B7 are 7.26 nM, 0.00113 s⁻¹ and 155000 M⁻¹ s⁻¹.
On the same counts, the results for B8 are 0.00119 nM, 1.2e-07 s⁻¹ and 100000 M⁻¹ s⁻¹.
B9 returned a Kd of 0.000765 nM, a koff of 7.94e-08 s⁻¹ and an on-rate (kon) of 104000 M⁻¹ s⁻¹.
On the same counts, the results for B10 are 11.5 nM, 0.00194 s⁻¹ and 169000 M⁻¹ s⁻¹.
On the same counts, the results for B11 are 0.449 nM, 5.79e-05 s⁻¹ and 129000 M⁻¹ s⁻¹.
For B12, the Kd stood at 1.13 nM, the koff is 0.000463 s⁻¹ and the kon is 408000 M⁻¹ s⁻¹.
On the same counts, the results for B13 are 1.37 nM, 0.00104 s⁻¹ and 756000 M⁻¹ s⁻¹.
B14 had a Kd of 7.73 nM, a koff of 0.000979 s⁻¹ and a kon of 127000 M⁻¹ s⁻¹.
In turn, B15 gave a Kd of 4.75 nM, a koff of 0.00061 s⁻¹ and a kon of 128000 M⁻¹ s⁻¹.
On the same counts, the results for B16 are 2.2 nM, 0.00042 s⁻¹ and 191000 M⁻¹ s⁻¹.

The target in the next experiment is Canine_OSMR_hlgG1_Fc (canine). As to the kind of experiment: SPR Biacore.
Chain of Canine_OSMR_hlgG1_Fc (canine) (chain, as listed by the source limits assumed, form in doubt): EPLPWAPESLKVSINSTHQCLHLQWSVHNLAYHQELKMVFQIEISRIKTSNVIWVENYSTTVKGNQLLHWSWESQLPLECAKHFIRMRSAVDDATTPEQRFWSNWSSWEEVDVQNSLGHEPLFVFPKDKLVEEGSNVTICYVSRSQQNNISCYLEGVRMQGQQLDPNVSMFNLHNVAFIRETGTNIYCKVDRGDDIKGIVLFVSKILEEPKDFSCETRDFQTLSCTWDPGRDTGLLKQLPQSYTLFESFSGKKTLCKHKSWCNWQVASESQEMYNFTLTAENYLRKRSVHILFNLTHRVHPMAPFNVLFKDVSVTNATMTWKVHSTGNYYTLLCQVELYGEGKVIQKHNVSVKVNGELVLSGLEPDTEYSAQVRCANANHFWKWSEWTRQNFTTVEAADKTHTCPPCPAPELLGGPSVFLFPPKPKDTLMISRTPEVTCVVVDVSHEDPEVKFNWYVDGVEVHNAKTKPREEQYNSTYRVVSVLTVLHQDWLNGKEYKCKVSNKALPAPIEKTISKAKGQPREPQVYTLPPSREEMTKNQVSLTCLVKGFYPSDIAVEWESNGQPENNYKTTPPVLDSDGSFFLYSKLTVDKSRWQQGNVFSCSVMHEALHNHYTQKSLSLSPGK
B14 came in with a Kd of 18.2 nM, a koff of 0.00105 s⁻¹ and a kon of 57500 M⁻¹ s⁻¹.
In turn, B15 yielded a Kd of 13.3 nM, a koff of 0.000885 s⁻¹ and a kon of 66500 M⁻¹ s⁻¹.
On the same counts, the results for B16 are 10 nM, 0.000851 s⁻¹ and 85000 M⁻¹ s⁻¹.

Another experiment has as its target Feline_OSMR_hlgG1_Fc (feline). The experiment can be described thus: indirect ELISA, fOSMR coated; OD ratio to antibody expression control. Background: An ELISA detects its analyte on a solid surface through an enzyme-linked reagent.
For B1, the ELISA ratio stood at 0.158 OD ratio.
Take B2: the ELISA ratio came to 0.001 OD ratio.
Regarding B3, the ELISA ratio was found to be 0.03 OD ratio.
Regarding B4, the ELISA ratio worked out at 0.058 OD ratio.
Regarding B5, the ELISA ratio is 0.01 OD ratio.
On the same count and under the same terms, the result for B6 reads 1.27 OD ratio; that for B7, 0.377 OD ratio; that for B8, 0.009 OD ratio.
As for B9, the ELISA ratio was 0 OD ratio.
B10: the ELISA ratio is 0.32 OD ratio.
For the molecule B11, the ELISA ratio turned out to be 0 OD ratio.
Take B12: the ELISA ratio amounted to 0 OD ratio.
On to B17, for which the ELISA ratio was 0.277 OD ratio.
As to B18, the ELISA ratio stood at 0.057 OD ratio.
For the molecule B19, the ELISA ratio was found to be 0.479 OD ratio.
Still for that read-out and setting: the result for B13 reads 1.05 OD ratio.
For the molecule B20, the ELISA ratio was 0.183 OD ratio.
Still for that read-out and setting: as for B21, the figure is 0 OD ratio.
On the same count and under the same terms, the result for B22 reads 0.011 OD ratio; that for B23, 0 OD ratio; that for B24, 0.015 OD ratio.
The same measure, in the same setting: the result for B25 reads 0 OD ratio.
